From publication PMC3494747

Columns and labels:
[1] = target: H2-D^b class I heavy chain, endogenous on RMA-S cells (mouse (endogenous in RMA-S)); assay: peptide-induced MHC class I surface stabilization assay
[2] = target: DLA-88*50801 heavy chain with a FLAG epitope tag at the carboxyl terminus, on BARC3 cells (canine); assay: flow cytometry on cells
[3] = target: DLA-88*50801 heavy chain with a FLAG epitope tag at the carboxyl terminus, on BARC3 cells (canine); assay: dissociation of peptide-MHC complexes from the cell surface under brefeldin A

Chain of H2-D^b class I heavy chain, endogenous on RMA-S cells (mouse (endogenous in RMA-S)) (P01899 25-362): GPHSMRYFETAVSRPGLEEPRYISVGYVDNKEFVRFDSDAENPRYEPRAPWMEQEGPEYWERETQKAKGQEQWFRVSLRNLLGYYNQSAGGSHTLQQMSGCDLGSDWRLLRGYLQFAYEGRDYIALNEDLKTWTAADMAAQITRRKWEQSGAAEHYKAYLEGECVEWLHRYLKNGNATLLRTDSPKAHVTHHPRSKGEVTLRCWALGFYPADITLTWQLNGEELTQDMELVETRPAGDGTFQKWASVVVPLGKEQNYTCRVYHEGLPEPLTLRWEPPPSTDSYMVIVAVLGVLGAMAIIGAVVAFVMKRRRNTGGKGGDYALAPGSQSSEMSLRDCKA

NP396 peptide (LCMV-derived immunodominant peptide)
MFI of anti-H2-D^b staining of peptide-loaded RMA-S cells [1]: 217 MFI

murine β2-microglobulin (from UniProt P01887 21-119) (natural protein)
MFI of anti-murine β2M staining (K11-pulsed BARC3 cells) [2]: 281 MFI

B1: K9 peptide (peptide)
peptide: KLFSGELTK
dissociation half-life (t1/2), first experiment [3]: 1.9 h

B2: K11 peptide (peptide)
peptide: RFLDKDGFIDK
dissociation half-life (t1/2), first experiment [3]: 6 h
